Reference: FireProtDB (doi:10.1016/j.jmb.2005.06.006)
Values joined by “and” are separate entries in the source; they are usually repeats but may differ in a detail not shown here. Equal entries are not always repeated.

Conditions: Escherichia coli (strain K12); pH 7.8; 25 °C; Urea; CD; Potassium phosphate 10 mM; transition: 3; whole UniProt chain shown

B1: Tryptophan synthase alpha chain wild type, P0A877 (protein)
chain: MERYESLFAQLKERKEGAFVPFVTLGDPGIEQSLKIIDTLIEAGADALELGIPFSDPLADGPTIQNATLRAFAAGVTPAQCFEMLALIRQKHPTIPIGLLMYANLVFNKGIDEFYAQCEKVGVDSVLVADVPVEESAPFRQAALRHNVAPIFICPPNADDDLLRQIASYGRGYTYLLSRAGVTGAENRAALPLNHLVAKLKEYNAAPPLQGFGISAPDQVKAAIDAGAAGAISGSAIVKIIEQHINEPEKMLAALKVFVQPMKAATRS
denaturant m value: 2.29 kcal/mol/M and 1.2 kcal/mol/M
unfolding free energy: 6.13 kcal/mol and 4.72 kcal/mol
